One molecule from patent US20230374151A1 (GlaxoSmithKline, published 2023) can be followed below.

Assay [1] has as its target T1, TnMUC1 (aberrantly glycosylated MUC1) on tumour cells (human, UniProt P15941 24-1255, truncated Tn / sialyl-Tn O-glycans on Ser/Thr (aberrant glycosylation)).
T1 construct: whole, on cells; also called Tn/STnMUC-1; TnMUC1-positive MDA-MB-468 cells
The assay is described as follows: flow cytometry on MDA-MB-468 cells, scFv pre-complexed with anti-His-PE; experiment 75-13. The procedure:
(§1) Cells were detached and cells were re-suspended in appropriate cell culture media or transferred to Falcon tube. A sample of each cell suspension was then diluted 1:5 with DPBS (to give a final volume of 0.5 mL) and the number of viable cells per mL (based on trypan blue exclusion) were determined for each cell suspension using the Vi-CELL XR Cell Viability Analyser (Default cell type setting used). Cell suspensions were then diluted in appropriate cell culture media and seeded into fresh cell culture flasks at a density of 6.25×10⁴ viable cells per cm². Cells were incubated in a humidified incubator at 37° C. with 5% CO₂ for 48 hours (or until required). On the day of assay, cells were detached from flasks, resuspended in appropriate cell culture media (if appropriate) and the number of viable cells per mL counted as described previously. Cell suspensions were then centrifuged at 500×g for 5 minutes before resuspending cell pellets in FACS Buffer at a density of 4×10⁶ viable cells per mL.
(§2) scFv proteins were diluted to 62.5 nM in DPBS and dispensed into row A of a 96-well V-bottom plate before performing a 1:4 serial dilution in FACS Buffer down the plate to give 25 μL (final volume) per well (FACS Buffer in row H only). […]
In general terms: Flow cytometry measures light scatter and fluorescence of single cells or particles in a stream.

Assay [2] has as its target T1, TnMUC1 (aberrantly glycosylated MUC1) …. The assay can be described thus: flow cytometry on TnMUC1-positive Jurkat cells, His-tagged scFv pre-complexed with anti-His-PE, n=1 representative.
Assay [3] has the same target. The assay can be described thus: flow cytometry on MDA-MB-468 cells, scFv pre-complexed with anti-His-PE; mean. The procedure:
as §1, §2

The target is the same in assay [4]. The assay can be described thus: flow cytometry on MDA-MB-468 cells, scFv pre-complexed with anti-His-PE; experiment 75-14. The procedure:
as §1, §2

T1 sequence (P15941 24-1255): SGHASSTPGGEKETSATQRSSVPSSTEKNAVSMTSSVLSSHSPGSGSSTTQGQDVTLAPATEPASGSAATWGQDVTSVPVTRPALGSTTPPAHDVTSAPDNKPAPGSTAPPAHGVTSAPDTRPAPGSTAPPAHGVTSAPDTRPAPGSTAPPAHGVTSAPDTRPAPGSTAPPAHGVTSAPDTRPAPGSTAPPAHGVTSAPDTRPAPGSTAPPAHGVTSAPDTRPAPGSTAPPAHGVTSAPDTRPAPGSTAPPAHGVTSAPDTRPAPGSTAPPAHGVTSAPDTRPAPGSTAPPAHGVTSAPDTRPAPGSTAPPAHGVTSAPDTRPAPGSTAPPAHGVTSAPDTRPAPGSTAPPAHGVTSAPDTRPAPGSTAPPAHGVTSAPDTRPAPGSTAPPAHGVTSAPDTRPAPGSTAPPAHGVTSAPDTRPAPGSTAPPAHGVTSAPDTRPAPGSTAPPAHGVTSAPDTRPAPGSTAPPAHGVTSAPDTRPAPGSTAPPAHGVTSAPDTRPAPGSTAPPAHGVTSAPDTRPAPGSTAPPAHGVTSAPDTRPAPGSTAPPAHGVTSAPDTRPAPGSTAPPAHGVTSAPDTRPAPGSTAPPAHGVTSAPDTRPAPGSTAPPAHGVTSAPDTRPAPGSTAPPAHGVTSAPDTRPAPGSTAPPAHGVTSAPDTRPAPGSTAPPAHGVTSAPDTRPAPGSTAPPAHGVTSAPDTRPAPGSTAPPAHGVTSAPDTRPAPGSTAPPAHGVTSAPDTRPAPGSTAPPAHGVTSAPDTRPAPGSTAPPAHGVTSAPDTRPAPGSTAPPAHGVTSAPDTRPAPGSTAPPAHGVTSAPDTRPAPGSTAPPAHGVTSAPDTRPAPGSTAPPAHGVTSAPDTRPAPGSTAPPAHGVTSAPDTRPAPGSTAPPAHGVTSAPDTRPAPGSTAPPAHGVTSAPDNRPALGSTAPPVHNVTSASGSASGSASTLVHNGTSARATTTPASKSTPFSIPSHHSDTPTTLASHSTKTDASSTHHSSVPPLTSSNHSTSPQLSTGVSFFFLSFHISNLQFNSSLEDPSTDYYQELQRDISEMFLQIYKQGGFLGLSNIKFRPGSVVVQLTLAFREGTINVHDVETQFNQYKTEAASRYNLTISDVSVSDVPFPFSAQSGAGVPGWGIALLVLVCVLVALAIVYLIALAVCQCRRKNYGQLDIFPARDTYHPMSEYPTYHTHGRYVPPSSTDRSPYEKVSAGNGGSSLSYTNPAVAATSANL

B1: humanised anti-TnMUC1 scFv protein 9P1 (88A), VL-VH humanised control (scFv)
scFv: DIVMTQSPDSLAVSLGERATINCKSSQSLLNSGDQKNYLTWYQQKPGQPPKLLIYWASTRESGVPDRFSGSGSGTDFTLTISSLQAEDVAVYYCQNDYSYPLTFGQGTKVEIKGGGGSGGGGSGGGGSGGGGSQVQLVQSGAEVKKTGSSVKVSCKASGYTFTDHAIHWVRQAPGQALEWMGHFSPGNTDIKYNDKFKGRVTLTVDRSMSTAYMELSSLRSEDTAMYYCKTSTFFFDYWGQGTMVTVSSAAAHHHHHH
notes: Control scFv designed from a humanised antibody of WO2015/159076 (10D2 is said to come from Ab2, so 10D1 by implication from Ab1); Neat supernatant of construct 10D1 in the Octet assay; purified protein 9P1 in Biacore and flow cytometry; also called 10D1
As a reminder, the EC50 is the concentration that produces a half-maximal response. By pEC50 is commonly meant the EC50 on a negative log10 scale, so that one unit is a factor of ten. A lower pEC50 goes with a high EC50. The term EC50 (read off the curve) denotes the concentration giving half of the maximal effect. For the molecule B1, the half-maximal effective concentration (EC50) in assay [1] came out at 3 nM; in assay [3], 3.09 nM; in assay [4], 3.18 nM. For the same molecule, the values for the pEC50 in assay [1], in assay [3] and in assay [4] were 8.52, 8.51 and 8.5, respectively. The “EC50 (read off the curve)” value in assay [2] is roughly 6 nM.
